T1: Full-length APLP1 (APP-like protein 1), P51693
T1 chain: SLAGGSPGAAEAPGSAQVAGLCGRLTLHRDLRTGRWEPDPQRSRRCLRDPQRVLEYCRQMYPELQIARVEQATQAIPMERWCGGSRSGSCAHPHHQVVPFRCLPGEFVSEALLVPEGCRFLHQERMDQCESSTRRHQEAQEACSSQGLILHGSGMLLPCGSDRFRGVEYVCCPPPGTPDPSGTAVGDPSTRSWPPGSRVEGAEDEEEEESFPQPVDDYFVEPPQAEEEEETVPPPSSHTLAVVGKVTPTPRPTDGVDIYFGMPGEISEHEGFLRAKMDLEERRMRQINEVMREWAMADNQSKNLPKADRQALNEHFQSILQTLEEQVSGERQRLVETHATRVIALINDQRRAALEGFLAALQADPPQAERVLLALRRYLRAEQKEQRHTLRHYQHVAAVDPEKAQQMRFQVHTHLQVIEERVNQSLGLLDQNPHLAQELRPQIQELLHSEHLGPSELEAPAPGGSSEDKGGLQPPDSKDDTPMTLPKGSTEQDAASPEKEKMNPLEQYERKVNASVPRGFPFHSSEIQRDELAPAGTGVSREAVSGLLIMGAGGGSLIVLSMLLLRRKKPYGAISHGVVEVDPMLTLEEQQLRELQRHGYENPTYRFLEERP

B1: Recombinant caspase-3 (protein)
chain: SGISLDNSYKMDYPEMGLCIIINNKNFHKSTGMTSRSGTDVDAANLRETFRNLKYEVRNKNDLTREEIVELMRDVSKEDHSKRSSFVCVLLSHGEEGIIFGTNGPVDLKKITNFFRGDRCRSLTGKPKLFIIQACRGTELDCGIETDSGVDDDMACHKIPVEADFLYAYSTAPGYYSWRNSKDGSWFIQSLCAMLKQYADKLEFMHILTRVNRKVATEFESFSFDATFHAKKQIPCIVSMLTKELYFYH
B2: Recombinant caspase-7 (protein)
chain: AKPDRSSFVPSLFSKKKKNVTMRSIKTTRDRVPTYQYNMNFEKLGKCIIINNKNFDKVTGMGVRNGTDKDAEALFKCFRSLGFDVIVYNDCSCAKMQDLLKKASEEDHTNAACFACILLSHGEENVIYGKDGVTPIKDLTAHFRGDRCKTLLEKPKLFFIQACRGTELDDGIQADSGPINDTDANPRYKIPVEADFLFAYSTVPGYYSWRSPGRGSWFVQALCSILEEHGKDLEIMQILTRVNDRVARHFESQSDDPHFHEKKQIPCVVSMLTKELYFSQ
B3: Recombinant caspase-8 (protein)
chain: SESQTLDKVYQMKSKPRGYCLIINNHNFAKAREKVPKLHSIRDRNGTHLDAGALTTTFEELHFEIKPHDDCTVEQIYEILKIYQLMDHSNMDCFICCILSHGDKGIIYGTDGQEAPIYELTSQFTGLKCPSLAGKPKVFFIQACQGDNYQKGIPVETDSEEQPYLEMDLSSPQTRYIPDEADFLLGMATVNNCVSYRNPAEGTWYIQSLCQSLRERCPRGDDILTILTEVNYEVSNKDDKKNMGKQMPQPTFTLRKKLVFPSD
B4: Recombinant caspase-6 (protein)
chain: AFYKREMFDPAEKYKMDHRRRGIALIFNHERFFWHLTLPERRGTCADRDNLTRRFSDLGFEVKCFNDLKAEELLLKIHEVSTVSHADADCFVCVFLSHGEGNHIYAYDAKIEIQTLTGLFKGDKCHSLVGKPKIFIIQACRGNQHDVPVIPLDVVDNQTEKLDTNITEVDAASVYTLPAGADFLMCYSVAEGYYSHRETVNGSWYIQDLCEMLGKYGSSLEFTELLTLVNRKVSQRRVDFCKDPSAIGKKQVPCFASMLTKKLHFFPKSN

Key:
[1] = biological target: APP-C125 (C-terminal 125 amino acids of APP695), P05067
[2] = biological target: T1, Full-length APLP1 (APP-like protein 1), …
[3] = biological target: Full-length APLP2 (APP-like protein 2), Q06481
Sequence of Full-length APLP2 (APP-like protein 2), Q06481 (Q06481 32-763): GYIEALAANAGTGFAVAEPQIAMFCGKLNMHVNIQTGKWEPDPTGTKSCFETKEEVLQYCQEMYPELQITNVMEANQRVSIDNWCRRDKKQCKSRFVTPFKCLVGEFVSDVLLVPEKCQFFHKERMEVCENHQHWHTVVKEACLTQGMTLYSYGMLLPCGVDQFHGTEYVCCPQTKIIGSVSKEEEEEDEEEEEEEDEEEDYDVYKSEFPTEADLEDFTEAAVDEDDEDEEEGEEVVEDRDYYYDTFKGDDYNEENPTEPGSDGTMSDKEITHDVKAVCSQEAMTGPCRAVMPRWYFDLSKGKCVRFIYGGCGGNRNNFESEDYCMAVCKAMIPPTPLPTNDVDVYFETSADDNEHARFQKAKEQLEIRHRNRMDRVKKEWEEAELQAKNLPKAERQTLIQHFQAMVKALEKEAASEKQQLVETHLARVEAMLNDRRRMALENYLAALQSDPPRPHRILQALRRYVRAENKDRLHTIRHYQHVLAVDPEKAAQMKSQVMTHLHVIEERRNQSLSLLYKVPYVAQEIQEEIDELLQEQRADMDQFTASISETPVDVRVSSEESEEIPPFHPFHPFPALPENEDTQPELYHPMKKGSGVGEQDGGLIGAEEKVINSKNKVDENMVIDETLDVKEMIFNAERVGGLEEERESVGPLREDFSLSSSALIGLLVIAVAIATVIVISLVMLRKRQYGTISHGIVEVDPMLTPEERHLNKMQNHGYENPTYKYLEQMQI

[4] = biological target: Wild-type human APP695 (β-amyloid precursor protein), P05067
[5] = biological target: APP D664A mutant (APP695), P05067

| Protein | in vitro caspase cleavage [1] | generation of an APP-Neo-immunoreactive epitope by recombinant caspase in vitro [2] | in vitro cleavage of 35S-labelled in vitro transcribed/translated protein [2] | generation of an APP-Neo-immunoreactive epitope by recombinant caspase in vitro [3] | in vitro cleavage of 35S-labelled in vitro transcribed/translated protein [3] | generation of an APP-Neo-immunoreactive epitope by recombinant caspase in vitro [4] | in vitro cleavage of 35S-labelled in vitro transcribed/translated protein [4] | generation of an APP-Neo-immunoreactive epitope by recombinant caspase in vitro [5] |
| --- | --- | --- | --- | --- | --- | --- | --- | --- |
| B1 | caspases-3, -6 and -8 are capable of cleaving APP | in vitro transcribed/translated APLP1 and APLP2 yielded APP-Neo immunoreactive cleavage products only when incubated in the presence of recombinant caspase-3 | APLP1, on the other hand, was cleaved in vitro only by caspase-3, not by caspase-6 or -8 | in vitro transcribed/translated APLP1 and APLP2 yielded APP-Neo immunoreactive cleavage products only when incubated in the presence of recombinant caspase-3 | APLP2 may be cleaved in vitro by caspase-3 only, but with very low efficiency, if at all | an APP-Neo-immunoreactive epitope was detected in immunoblots of in vitro transcribed/translated full length APP that had been incubated in the presence of recombinant caspase-3, but not caspase-7 or -8 | APP can be cleaved by caspases-3 and -6, but not by caspase-8 |  |
| B2 |  |  |  |  |  | an APP-Neo-immunoreactive epitope was detected in immunoblots of in vitro transcribed/translated full length APP that had been incubated in the presence of recombinant caspase-3, but not caspase-7 or -8 |  |  |
| B3 | caspases-3, -6 and -8 are capable of cleaving APP |  | APLP1, on the other hand, was cleaved in vitro only by caspase-3, not by caspase-6 or -8 |  | Like APLP1, APLP2 may be cleaved in vitro by caspase-3 only, but with very low efficiency, if at all | an APP-Neo-immunoreactive epitope was detected in immunoblots of in vitro transcribed/translated full length APP that had been incubated in the presence of recombinant caspase-3, but not caspase-7 or -8 | APP can be cleaved by caspases-3 and -6, but not by caspase-8 | APPD664A, did not yield detectable APP-Neo immunoreactive products after incubation with recombinant caspase-3, -7 or -8 |
| B4 | caspases-3, -6 and -8 are capable of cleaving APP |  | APLP1, on the other hand, was cleaved in vitro only by caspase-3, not by caspase-6 or -8 |  | Like APLP1, APLP2 may be cleaved in vitro by caspase-3 only, but with very low efficiency, if at all |  | APP can be cleaved by caspases-3 and -6, but not by caspase-8 |  |
